Target: interleukin-6 (IL-6) (human) (UniProt P05231)
Test: SPR; IL-6 amine-coupled on a CM5 chip (Biacore T200); analytes in multi-cycle kinetics, 0.39 to 100 nM, 30 µL/min, 180 s association, 1200 s dissociation, HBS-N + 10 mM CaCl2; global fit, 1:1 model; where koff was below the detection limit KD was estimated from kon and the theoretical maximum koff

interleukin-6 (IL-6) (human), sequence (P05231 30-212): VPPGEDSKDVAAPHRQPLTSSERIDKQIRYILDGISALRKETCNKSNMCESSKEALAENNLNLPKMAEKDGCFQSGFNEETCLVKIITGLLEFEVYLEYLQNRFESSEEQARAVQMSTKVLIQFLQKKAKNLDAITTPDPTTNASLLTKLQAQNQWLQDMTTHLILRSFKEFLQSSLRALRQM

| Substance | Kd [nM] | koff [s⁻¹] | kon [M⁻¹ s⁻¹] |
| --- | --- | --- | --- |
| sIL-6R-TGN 1:5 (from UniProt P08887 20-355) (receptor) | 428 | – | – |
| soluble IL-6 receptor (sIL-6R) (from UniProt P08887 20-355) | 131 | 0.035 | 248000 |

Reference: PMC13083842
